In patent US8722637B2, “Methods and compositions of IG20 and DENN-SV splice variants” (The Board of Trustees of the University of Illinois, priority 2003, dated 2014):

How the values were obtained:
Assay type in all cases: cell-based, human
PA-1 cells = assay: TRAIL-induced apoptosis in PA-1 cells (active caspase 3); details: TRAIL three hours
Description: FIG. 12: Effects of IG20 on PA-1 Cell Phenotypes. (A) Growth Rates. PA-1 and PA-1-IG20 cells were plated as described in Materials and Methods. Cells were then harvested and counted on the indicated days. Data are presented as mean+standard deviation of three plates for each sample. P values were <0.05 for all test groups. (B) TNFα-Induced Apoptosis. Cells were either untreated or treated with TNFα and cyclohexamide (CHX) for three hours, as described in Materials and Methods and then tested for percentages of cells with active caspase 3. (C) TRAIL-Induced Apoptosis. Cells were either untreated or treated with TRAIL for three hours and then tested for percentages of cells with active caspase 3, in the presence or absence of Z-VAD, an inhibitor of caspase activation. (D) Response to […] and TRAIL Treatment. PA-1-IG20 cells exposed to 6 and 12Gy of […] were plated as described in Materials and Methods. Twenty-four hours later, cells were either untreated or treated with TRAIL for 3 hours. All cells were then harvested and tested for levels of active caspase 3. (E) TNFα- and TRAIL-Induced NFκB Activation. Cells transfected with the NFκB-luciferase reporter were serum-deprived and then subjected to mock, TNFα, TRAIL or zVAD treatments for 5 hours. Cells were then lysed and tested for levels of luciferase activity. […]

HeLa IG20 cells = assay: TRAIL or TNF-α/cycloheximide induced apoptosis in HeLa IG20 cells (caspase activation, TMRE, Hoechst); details: 5 hours; TRAIL 100 ng/mL, or 10 ng/mL TNF-α and 10 μg/mL cycloheximide
Description: FIG. 13: IG20 transfected HeLa cells show increased apoptosis upon TRAIL treatment. HeLa-IG20 and control cells were treated for 5 hours with TRAIL at 100 ng/mL or with 10 ng/mL of TNF-α and 10 μg/mL of Cycloheximide and analyzed for apoptosis. A) Activation of caspases—cells were incubated for 10 minutes with FITC labeled general caspase inhibitor VAD FMK (Val-Ala-Asp-flouromethyl ketone) and analyzed by FACS. Numbers in the histogram indicate percentage of FITC positive cells. B) Mitochondrial Depolarization—Loss of the dye TMRE is indicative of mitochondrial depolarization and the numbers shown in the FACS histograms represent percentage of TMRE negative cells. All the above experiments were done in triplicates and results shown are representative histograms. […] D) Percentage of cells with condensed chromatin was calculated by counting 3 fields containing at least 200 cells each and error bars indicate mean±S.D.
Mitochondrial depolarization and chromatin condensation—2×10^5 HeLa IG20 and Vector control cells were plated into a 12-well culture dish and allowed to grow for 48 hours. […] Cells were assessed for loss of mitochondrial membrane potential by staining with tetramethylrhodamine ethyl ester (100 nm, Molecular Probes, Eugene, Oreg.) for 10 minutes, washed once with ice-cold PBS, collected and subjected to FACS analysis. […]

caspase-3 = assay: Caspase-3 activation in HeLa IG20 cells; details: 5 hours; TRAIL, or TNF-α and cycloheximide
Description: FIG. 15: IG20 Cells show increased specific activation of caspases upon TRAIL treatment A) Initiator caspases—Hela IG20 cells and control cells treated with TRAIL for 1H, were stained, with flourochrome-conjugated peptide inhibitors of specific active caspases as indicated, fixed and analyzed by FACS. B) Caspase-8 cleavage—IG20 HeLa cells and control cells were treated with TRAIL for either 1H or 3H, lysed and immunoblotted for the 10 kDa cleaved product of active caspase-8 using the 6B6 monoclonal antibody. […]
Caspase activation—To assess the general activation of caspases, cells were stained with FITC tagged caspase inhibitor Val-Ala-Asp-flouromethyl ketone Promega, Madison, Wis.) for 10 minutes at 37° C., washed and analyzed by FACS for percentage of FITC positive cells. The initiator caspases were analyzed by using carboxyflourescein labeled peptide flouromethlyketone inhibitors (FAM-peptide-FMK) directed against active caspase-8, 9 and 10 (APOLOGIX caspase detection kit, Cell Tech Inc., Minneapolis, Minn.). […] Cells were collected, washed once, resuspended in Perm/wash buffer and analyzed by FACS for PE positive population. […]

[1] = test system: HeLa IG20 and control cells; assay: Inhibition of TRAIL induced apoptosis by caspase inhibitors and DN-FADD (active caspase-3); details: control and HeLa IG20 cells transfected with inhibitor; TRAIL 100 ng/mL 5 hours
Description: FIG. 16. IG 20 enhanced apoptosis can be inhibited by caspase inhibitors and DN FADD HeLaIG20 and control cells (1×10^5 per well in a 6 well plate) were co-transfected with GFP-F vector along with either Crm A, p35 or DN-FADD in the ratio of 1:10. Twenty-four hours post transfection, TRAIL was added at a concentration of 100 ng/mL for 5 hours and both treated and untreated cells were stained with PE-conjugated anti-caspase3 antibodies and subjected to FACS analyses. The data were obtained from only GFP positive cells and represent 2 independent experiments carried out in duplicate.
Transfection with dominant negative FADD, CrmA and p35 constructs—Control vector and IG20 stably transfected HeLa cells were plated at 5×10^5 overnight and the dominant negative FADD, Crm A and p35 constructs were co-transfected (2 μg each) with farnesylated EGFP at a ratio of 1:5. Equal numbers of wells were co-transfected with an appropriate control vector along with EGFP-F at the same ratio. The transfected cells were left untreated or treated with the TRAIL, or with TNF-α and cycloheximide, for 5 hours and cells were collected and stained for active caspase-3 (anti caspase-3 antibody) and subjected to FACS analysis to detect active caspase-3 staining in GFP-positive cells.

B1: TRAIL: recombinant human TRAIL, TNF Related Apoptosis Inducing Ligand, purchased from Peprotech (protein, UniProt P50591 1-281, looked up)
Tumor necrosis factor ligand …: MAMMEVQGGPSLGQTCVLIVIFTVLLQSLCVAVTYVYFTNELKQMQDKYSKSGIACFLKEDDSYWDPNDEESMNSPCWQVKWQLRQLVRKMILRTSEETISTVQEKQQNISPLVRERGPQRVAAHITGTRGRSNTLSSPNSKNEKALGRKINSWESSRSGHSFLSNLHLRNGELVIHEKGFYYIYSQTYFRFQEEIKENTKNDKQMVQYIYKYTSYPDPILLMKSARNSCWSKDAEYGLYSIYQGGIFELKENDRIFVSVTNEHLIDMDHEASFFGAFLVG
- TRAIL-induced apoptosis (PA-1 cells; PA-1-IG20 cells): highly susceptible to TRAIL-induced apoptosis
- TRAIL-induced apoptosis (PA-1 cells; PA-1 cells): almost completely resistant
- Increase in cells undergoing apoptosis, HeLa IG20 versus control cells (HeLa IG20 cells): 3-3.5 fold
- Relative increase in caspase-3 activation, HeLa IG20 relative to control cells (caspase-3): five fold increase

B2: p35: baculovirus derived general caspase inhibitor (protein, UniProt P08160 1-299, looked up)
Early 35 kDa protein: MCVIFPVEIDVSQTIIRDCQVDKQTRELVYINKIMNTQLTKPVLMMFNISGPIRSVTRKNNNLRDRIKSKVDEQFDQLERDYSDQMDGFHDSIKYFKDEHYSVSCQNGSVLKSKFAKILKSHDYTDKKSIEAYEKYCLPKLVDERNDYYVAVCVLKPGFENGSNQVLSFEYNPIGNKVIVPFAHEINDTGLYEYDVVAYVDSVQFDGEQFEEFVQSLILPSSFKNSEKVLYYNEASKNKSMIYKALEFTTESSWGKSEKYNWKIFCNGFIYDKKSKVLYVKLHNVTSALNKNVILNTIK
- Effect on TRAIL induced apoptosis (active caspase-3) [1]: abrogated TRAIL induced apoptosis
